Kd data for 1 substance are collected here from article PMC9450512.

Values joined by “and” are separate entries in the source; they are usually repeats but may differ in a detail not shown here. Equal values may be shown once.

The experiment has as its target Catalytic Domain of Human HDAC7 (cdHDAC7), biotinylated (human). The experiment is described as follows: BLI. (In BLI a coated tip is dipped into the sample, and binding shifts an interference pattern.)

In general, Kd refers to the constant that tells how readily two partners part at equilibrium. Low values mean higher affinity, high ones lower affinity. Regarding “Ac-Leu-Gly-Lys(Ac)-NH2 (LGKAc), acetylated peptide derived from histone 4 lysine 12”, the equilibrium dissociation constant (Kd) is 0.72 µM and 1 µM.
